Test results: patent US20220154138A1, “METHOD OF PRODUCING PLACENTA-LIKE ORGANOID, PLACENTA-LIKE ORGANOID, AND PRODUCTION OR TEST KIT” (FUJIFILM Corporation, priority 2020, published 2022)

Tests used:
iPS cells [1] = test: Two-dimensional adhesion culture of iPS cells with BMP4, hCG in culture supernatant by GONASTICK W; format: cell-based, human; conditions: 2D adhesion culture, StemFit, BMP4 present
Protocol: (§1) In GONASTICK W, about 0.5 to 1 mL of the culture supernatant was sampled, and a test strip was soaked therein. After the soaking was completed, the determination surface of the test strip was placed to face upward and allowed to stand until the culture supernatant passed through the determination window and reached the reaction end window. […] The detection sensitivity of the present examination reagent is 25 IU/L, and a blue control line corresponding to an hCG concentration of 1,000 IU/L is printed in advance on the determination window, which can be visually compared with the determination line.
(§2) In a case where a line equal to or more blue-colored than the control line was visually observed on the determination line, it was judged as positive (+).
(§3) In a case where the line was not visually observed on the determination line, it was determined to be negative (−).
(§4) In a case where a line that was less blue-colored than the control line but was visible was visually observed on the determination line, it was determined to be (+/−).
Laminin (iMatrix-511: Nippi. Inc.) was diluted with Dulbecco's phosphate buffered saline (DPBS), 1 mL thereof per well was dispensed into a 6-well plate (Falcon TC: #353046), and the plate was allowed to stand in a 37° C. incubator for 1 hour to be coated with laminin. 2 mL of an iPS cell medium (StemFit (registered trade name) AK02N: Ajinomoto Co., Inc.) to which 2 μL of a solution containing 50 μg/mL BMP4 (R&D Systems Inc.) had been added was dispensed into the laminin-coated plate, and iPS cells (4×10^4 cells/well) were seeded therein. The culture was continued while appropriately changing the medium, and the hCG contained in the culture supernatant was detected using a drug for in vitro diagnosis for the pregnancy test, GONASTICK W (MOCHIDA PHARMACEUTICAL Co., Ltd.), whereby the differentiation induction into a placental tissue was checked. As a negative control, the same culture was carried out using a medium to which BMP4 had not been added. The hCG was started to be produced on the 7th day of culture; however, the hCG production stopped around the 18th day (Table 1).

iPS cells [2] = test: Three-dimensional suspension (spinner flask) culture of iPS cells with BMP4, hCG by GONASTICK W; format: cell-based, human; conditions: for hCG production: Example 1, spinner flask
Protocol: as §1, §2, §3, §4
30 mL of an iPS cell medium (StemFit (registered trade name) AK02N: Ajinomoto Co., Inc.) was dispensed into a 30 mL volume spinner flask (ABLE Corporation), and then iPS cells (1.6×10^7 cells/mL) were seeded. BMP4 was not added at the start of culture, but 30 μL of a solution containing 50 μg/mL BMP4 (R&D Systems Inc.) was added on the 4th day of culture so that the final concentration of BMP4 in the medium was to be 50 ng/mL. In a case where BMP4 was added to Example 2 and subsequent Examples, the same concentration was used. After the start of culture, the addition of BMP4 was continued until the 18th day of culture while exchanging half of the medium every 3 to 4 days, and thereafter, only the medium was exchanged without adding BMP4. Cell aggregates (spheroids) were formed by the 4th day of culture (FIG. 1). The stirring culture was continued in a spinner flask throughout the culture period. Although the hCG production was not confirmed until the 11th day of culture, the hCG production was confirmed after the 15th day of culture, and it was confirmed that the hCG production was continued even after the 60th day of culture (Table 2).
30 mL of an iPS cell medium (StemFit (registered trade name) AK02N: Ajinomoto Co., Inc.) was dispensed into a 30 mL volume spinner flask (ABLE Corporation), and then iPS cells (1.1×10^7 cells/bottle) were seeded. The comparison was carried out between the level 1 in which BMP4 was not added at the start of culture but added on the 4th day of culture and the level 2 in which BMVP was added from the start of culture. BMP4 was added so that the concentration in the medium was 50 ng/mL in both the level 1 and the level 2. After the start of culture, half of the medium was exchanged every 3 to 4 days, and after the 18th day of culture, the medium was exchanged for both the level 1 and the level 2 with a medium to which BMP4 had not been added. By the 4th day of culture, cell aggregates (spheroids) were formed. Regarding the level 1 and the level 2, stirring culture was continued in a spinner flask from the initial stage of culture, and the hCG production was checked. In a case where BMP4 is added from the start of culture (the level 2), the hCG production is started earlier; however, the hCG production also stops earlier. On the other hand, in a case where BMP4 is added after the 4th day of culture (the level 1), the hCG production is slightly delayed; however, it continued for a long time.

B1: BMP4: bone morphogenetic protein BMP4 (R&D Systems Inc.), added to iPS cell medium at 50 ng/mL to induce differentiation (protein, UniProt P12644 293-408, looked up)
Bone morphogenetic protein 4: SPKHHSQRARKKNKNCRRHSLYVDFSDVGWNDWIVAPPGYQAFYCHGDCPFPLADHLNSTNHAIVQTLVNSVNSSIPKACCVPTELSAISMLYLDEYDKVVLKNYQEMVVEGCGCR
- hCG production (iPS cells [1]; day 7): + (a line equal to or more blue-colored than the control line was visually observed on the determination line, it was judged as positive (+))
- hCG production (iPS cells [1]; day 11): + (a line equal to or more blue-colored than the control line was visually observed on the determination line, it was judged as positive (+))
- hCG production (iPS cells [1]; day 15): + (a line equal to or more blue-colored than the control line was visually observed on the determination line, it was judged as positive (+))
- hCG production (iPS cells [1]; day 18): +/− (a line that was less blue-colored than the control line but was visible was visually observed on the determination line, it was determined to be (+/−))
- hCG production (iPS cells [1]; day 21): − (the line was not visually observed on the determination line, it was determined to be negative (−))
- hCG production (iPS cells [2]; BMP4 50 ng/mL day 4 to 18, day 15): + (a line equal to or more blue-colored than the control line was visually observed on the determination line, it was judged as positive (+))
- hCG production (iPS cells [2]; BMP4 50 ng/mL day 4 to 18, day 39): + (a line equal to or more blue-colored than the control line was visually observed on the determination line, it was judged as positive (+))
- hCG production (iPS cells [2]; BMP4 50 ng/mL day 4 to 18, day 53): + (a line equal to or more blue-colored than the control line was visually observed on the determination line, it was judged as positive (+))
- hCG production (iPS cells [2]; BMP4 50 ng/mL day 4 to 18, day 67): + (a line equal to or more blue-colored than the control line was visually observed on the determination line, it was judged as positive (+))
- HCG production (iPS cells [2]; level 1: BMP4 50 ng/mL added from day 4, spinner flask, day 8): − (the line was not visually observed on the determination line, it was determined to be negative (−))
- HCG production (iPS cells [2]; level 1: BMP4 added from day 4, day 11): − (the line was not visually observed on the determination line, it was determined to be negative (−))
- HCG production (iPS cells [2]; level 1: BMP4 added from day 4, day 14): +/− (a line that was less blue-colored than the control line but was visible was visually observed on the determination line, it was determined to be (+/−))
- HCG production (iPS cells [2]; level 1: BMP4 added from day 4, day 18): + (a line equal to or more blue-colored than the control line was visually observed on the determination line, it was judged as positive (+))
- HCG production (iPS cells [2]; level 1: BMP4 added from day 4, day 21): + (a line equal to or more blue-colored than the control line was visually observed on the determination line, it was judged as positive (+))
- HCG production (iPS cells [2]; level 1: BMP4 added from day 4, day 25): + (a line equal to or more blue-colored than the control line was visually observed on the determination line, it was judged as positive (+))
- HCG production (iPS cells [2]; level 1: BMP4 added from day 4, day 28): + (a line equal to or more blue-colored than the control line was visually observed on the determination line, it was judged as positive (+))
- HCG production (iPS cells [2]; level 1: BMP4 added from day 4, day 32): + (a line equal to or more blue-colored than the control line was visually observed on the determination line, it was judged as positive (+))
- HCG production (iPS cells [2]; level 2: BMP4 50 ng/mL added from start of culture, spinner flask, day 8): + (a line equal to or more blue-colored than the control line was visually observed on the determination line, it was judged as positive (+))
- HCG production (iPS cells [2]; level 2: BMP4 added from start of culture, day 11): + (a line equal to or more blue-colored than the control line was visually observed on the determination line, it was judged as positive (+))
- HCG production (iPS cells [2]; level 2: BMP4 added from start of culture, day 14): + (a line equal to or more blue-colored than the control line was visually observed on the determination line, it was judged as positive (+))
- HCG production (iPS cells [2]; level 2: BMP4 added from start of culture, day 18): + (a line equal to or more blue-colored than the control line was visually observed on the determination line, it was judged as positive (+))
- HCG production (iPS cells [2]; level 2: BMP4 added from start of culture, day 21): + (a line equal to or more blue-colored than the control line was visually observed on the determination line, it was judged as positive (+))
- HCG production (iPS cells [2]; level 2: BMP4 added from start of culture, day 25): +/− (a line that was less blue-colored than the control line but was visible was visually observed on the determination line, it was determined to be (+/−))
- HCG production (iPS cells [2]; level 2: BMP4 added from start of culture, day 28): − (the line was not visually observed on the determination line, it was determined to be negative (−))
- HCG production (iPS cells [2]; level 2: BMP4 added from start of culture, day 32): − (the line was not visually observed on the determination line, it was determined to be negative (−))
